Results from patent US10550165B2, “Peptide for inducing regeneration of tissue and use thereof” (STEMRIM INC., priority 2011, dated 2020).

How the values were obtained:
[1] = test system: skin flap made on the back of a rat; test: Skin flap (skin damage) model on the back of rats; assay type: in vivo
Experimental: Experimental animals used were SD rats (male, eight weeks old). After sufficiently deep anesthesia by isoflurane inhalation, a rectangular skin incision of 3 cm width×7 cm length was made on the back. The cephalic side was left uncut, and the skin was thoroughly detached from the subcutaneous tissues. The three incised sides were sutured to the surrounding skin using #4 silk suture, and protected with Tegaderm (3M) to prevent bacterial infection.
The full-length mouse HMGB1 (100 μg/administration/day) produced in HEK293 and chemically synthesized HMGB1 peptide (amino acids 1 to 44; 50 μg/administration/day) were diluted to 200 μl with phosphate buffer and administered to rats via the caudal vein. The first administration was performed 6 hours after the surgery, and then the agents were administered every 24 hours a total of five times. Phosphate-buffered physiological saline was administered as a negative control. Tegaderm was removed after one week, and the wound region was observed weekly to measure the areas of necrosis and ulceration.
Experimental animals used were 15 SD rats (male, eight weeks old) per group. After sufficient anesthesia by isoflurane inhalation, a rectangular skin incision of 3 cm width×7 cm length was made on the back. The cephalic side was left uncut, and the skin was thoroughly detached from the subcutaneous tissues. The incised three sides were sutured to the surrounding skin using #4 silk suture, and protected with Tegaderm (3M) to prevent bacterial infection.
Chemically synthesized HMGB1 peptide (amino acids 1-44; 50 μg/administration/day) or HMGB1 peptide (amino acids 17-25; 50 μg/administration/day) was diluted to 200 μl with phosphate buffer and administered to the rats with experimental wound. The first administration was performed 6 hours after the surgery, and then the agents were administered every 24 hours a total of five times. Phosphate-buffered physiological saline was administered as a negative control. Tegaderm was removed after one week, and the wound was observed two weeks after the wound production. Uncured areas (ulceration and necrosis) were measured.

[2] = test system: mouse bone marrow mesenchymal stem cell line (MSC-1 cells), PDGFRα-positive; test: Migration assay (Boyden / 48-well chemotaxis chamber) on bone marrow mesenchymal stem cell line MSC-1; assay type: cell-based
Summary of the method: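 Mouse MSC-1 cells (3×10^6 cells/ml in D-MEM with 10% FBS) loaded in the upper wells of a 48-well Boyden chamber with 8 μm polycarbonate membrane; mouse HMGB1 peptides or HEK293-made HMGB1 in lower wells at 100 μg/ml, 5 μM or 10 μM; PBS as negative control. After 4 h at 37° C, migrated cells were Diff-Quik stained.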

[3] = Youn et al., J Immunol 2008; cited from earlier work
[4] = test system: skin flap made on the back of a rat; test: Skin flap (skin damage) model on the back of rats; assay type: in vivo; details: six weeks after skin flap production; 50 μg/administration/day, five administrations, FIG. 26
[5] = Side effects after administration of recombinant HMGB1 (previous studies of the inventors); assay type: in vivo; details: high concentration administered to mice or rats
Text: As described above, HMGB1 pharmaceuticals are revolutionary therapeutic agents that promote the recruitment of bone marrow mesenchymal stem cells into blood and accumulation of the cells to damaged tissues, thereby inducing tissue regeneration in the body. […] However, there are also reports that HMGB1 has an inflammatory effect. As described above, there are several findings on HMGB1; however, nothing is known about the effect of fragments of the HMGB1 protein on mesenchymal stem cells or what roles they play in tissue regeneration.

mesoangioblasts = details: Palumbo et al., J. Cell Biol. 2004; cited from earlier work
[6] = test system: human-derived bone marrow mesenchymal stem cells (hMSC); test: Migration assay on human-derived bone marrow mesenchymal stem cells; assay type: cell-based; details: human HMGB1 fragments produced in E. coli, 2 μM, FIG. 21B
Text: Human HMGB1 fragments (2-215, 2-84, 2-44, 45-84, 85-169, 89-185, 89-195, and 89-205) were produced in E. coli and purified using appropriate columns in the same manner as described in Examples 14, 15, and 16 above. However, 89-215 was purified by the same method as used for 89-205 in Example 15.
Using human-derived bone marrow mesenchymal stem cells, each fragment was examined by the same migration assay performed on mouse-derived bone marrow mesenchymal stem cells (MSC-1) as described above. The fragments were used at a final concentration of 2 μM. The human-derived bone marrow mesenchymal stem cells used were hMSC (human Mesenchymal Stem Cell, Takara) at fourth passage. The growth medium used was a mesenchymal stem cell growth medium (MF medium, TOYOBO). The cells were cultured in an incubator under 5% CO2 at 37° C. The medium was changed with a fresh medium every two to four days. The cells were passaged when they reached 80% confluency.

[7] = produced in E. coli, 2 μM, FIGS. 20B and 20C

In the case of “1-215: whole mouse HMGB1 produced in HEK293, positive control [reference compound]”, the “area of wound section (necrosed section) in the skin flap” value ([1]; one to three weeks after the skin flap was made, versus negative control, FIG. 25) is reported as “effect of shrinking the wound section was confirmed”, the “rats in which skin necrosis developed” value ([1]; one week after surgery, caudal vein, five administrations, full-length 100 μg, peptide 50 μg/administration/day, negative control four of five) is reported as “three of five rats” and the “rats with severe skin contracture” value ([1]; seven weeks after surgery, same regimen, negative control four of five, FIG. 24) is reported as “three of five rats”. The migration-promoting activity ([2]; protein and peptides produced using HEK293 (mouse HMGB1), 50 μg/ml, 4 h, FIG. 2A) was “showed migration-promoting activity” and the LPS-binding activity [3] was “known to have the binding activity with lipopolysaccharide (LPS)”.

In the case of “(17-25): synthetic peptide consisting of the amino acid sequence from positions 17 to 25 of HMGB1 (AFFVQTCRE; UniProt P09429 17-25, looked up, fragment)”, the “ratio of the uncured area relative to the area of the whole skin flap, average” value ([1]; two weeks after skin flap production, 50 μg/administration/day, five administrations, 15 SD rats per group, FIG. 26) is reported as 9.1%, the migration-promoting activity ([2]; synthetic peptides, 5 μM, FIGS. 8A and 8B) is reported as “weak activity” and the “ratio of the uncured area relative to the area of the whole skin flap, average” value [4] is reported as 3.5%.

For “recombinant HMGB1 protein: recombinant HMGB1 protein administered to mice or rats in the inventors' previous studies”, the side effects [5] was “no side effects were observed”.

B1: amino acids of positions 1 to 187: HMGB1 sequence of positions 1 to 187 resulting from cleavage at the C terminal end (Palumbo et al.) (protein, UniProt P09429 1-187, looked up, fragment)
chain: MGKGDPKKPRGKMSSYAFFVQTCREEHKKKHPDASVNFSEFSKKCSERWKTMSAKEKGKFEDMAKADKARYEREMKTYIPPKGETKKKFKDPNAPKRPPSAFFLFCSEYRPKIKGEHPGLSIGDVAKKLGEMWNNTAADDKQPYEKKAAKLKEKYEKDIAAYRAKGKPDAAKKGVVKAEKSKKKKEE
For B1, the cell migration-promoting activity (mesoangioblasts) is listed as “retains the cell migration-promoting activity of HMGB1”.

B2: amino acids of positions 1 to 89: HMGB1 sequence consisting of the amino acids of positions 1 to 89 (Palumbo et al.) (protein, UniProt P09429 1-89, looked up, fragment)
chain: MGKGDPKKPRGKMSSYAFFVQTCREEHKKKHPDASVNFSEFSKKCSERWKTMSAKEKGKFEDMAKADKARYEREMKTYIPPKGETKKKF
In the case of B2, the cell migration-promoting activity (mesoangioblasts) is given as “almost no activity”.

B3: amino acids of positions 90 to 176: HMGB1 sequence consisting of the amino acids of positions 90 to 176 (Palumbo et al.) (protein, UniProt P09429 90-176, looked up, fragment)
chain: KDPNAPKRPPSAFFLFCSEYRPKIKGEHPGLSIGDVAKKLGEMWNNTAADDKQPYEKKAAKLKEKYEKDIAAYRAKGKPDAAKKGVV
For B3, the cell migration-promoting activity (mesoangioblasts) is given as “almost no activity”.

B4: amino acids of positions 1 to 176: HMGB1 sequence consisting of the amino acids of positions 1 to 176 (Palumbo et al.) (protein, UniProt P09429 1-176, looked up, fragment)
chain: MGKGDPKKPRGKMSSYAFFVQTCREEHKKKHPDASVNFSEFSKKCSERWKTMSAKEKGKFEDMAKADKARYEREMKTYIPPKGETKKKFKDPNAPKRPPSAFFLFCSEYRPKIKGEHPGLSIGDVAKKLGEMWNNTAADDKQPYEKKAAKLKEKYEKDIAAYRAKGKPDAAKKGVV
For B4, the cell migration-promoting activity (mesoangioblasts) is listed as “almost no activity”.

B5: 89-185: human HMGB1 fragment, positions 89 to 185, produced in E. coli (protein, UniProt P09429 89-185, looked up, fragment)
chain: FKDPNAPKRPPSAFFLFCSEYRPKIKGEHPGLSIGDVAKKLGEMWNNTAADDKQPYEKKAAKLKEKYEKDIAAYRAKGKPDAAKKGVVKAEKSKKKK
In the case of B5, the migration-promoting activity ([2]; human HMGB1 fragments 89-215, 89-205, 89-195, 89-185 and their Q column fractions, E. coli, 2 μM, FIGS. 19B and 19D) is reported as “stronger activity than any fragments between positions 89 and 215” and the migration-promoting activity [6] is reported as “exhibited stronger activity”.

B6: Human HMGB1 fragment (85-169): human HMGB1 fragment, positions 85 to 169, produced in E. coli (protein, UniProt P09429 85-169, looked up, fragment)
chain: TKKKFKDPNAPKRPPSAFFLFCSEYRPKIKGEHPGLSIGDVAKKLGEMWNNTAADDKQPYEKKAAKLKEKYEKDIAAYRAKGKPD
For B6, the “migration-promoting activity compared with 2-215” value ([2]; produced in E. coli, 2 μM, FIG. 20A) was “stronger migration-promoting activity on bone marrow mesenchymal stem cells than human HMGB1 fragment (2-215)”, the “migration-promoting activity per equal mass (reference taken as 1)” value [2, 7] was 3.6 times and the “migration-promoting activity per molar (reference taken as 1)” value [2, 7] was 1.59 times. The migration-promoting activity [6] was “greater than that of human HMGB1 fragment (2-215)”.

B7: amino acids 1 to 79: HMGB1 fragment of amino acids 1 to 79 (Youn et al.) (protein, UniProt P09429 1-79, looked up, fragment)
chain: MGKGDPKKPRGKMSSYAFFVQTCREEHKKKHPDASVNFSEFSKKCSERWKTMSAKEKGKFEDMAKADKARYEREMKTYI
For B7, the LPS-binding activity [3] is listed as “lack the LPS-binding activity”.

B8: amino acids 88 to 162: HMGB1 fragment of amino acids 88 to 162 (Youn et al.) (protein, UniProt P09429 88-162, looked up, fragment)
chain: KFKDPNAPKRPPSAFFLFCSEYRPKIKGEHPGLSIGDVAKKLGEMWNNTAADDKQPYEKKAAKLKEKYEKDIAAY
In the case of B8, the LPS-binding activity [3] is listed as “lack the LPS-binding activity”.
